# Experimental data from patent US20210284749A1 (ABL BIO, published 2021).
# Positions count from the first letter of the chain named.
# B1: anti-BCMA IgG antibody 5G (antibody, V domains shown)
# VH: EVQLVESGGGLVQPGGSLRLSCAASGFTFSNYAMSWVRQAPGKGLEWVSGISQSGSSTYYADSVKGRFTISRDNSKNTLYLQMNSLRAEDTAVYYCAKHAYIIEFESMDIWGQGTLVTVSS
# VL: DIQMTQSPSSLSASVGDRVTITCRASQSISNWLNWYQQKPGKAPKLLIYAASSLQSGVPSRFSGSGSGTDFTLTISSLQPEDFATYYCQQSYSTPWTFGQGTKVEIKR
# B2: anti-BCMA IgG antibody 4H9 (antibody, V domains shown)
# VH: EVQLLESGGGLVQPGGSLRLSCAASGFTFSGYSMSWVRQAPGKGLEWVSSIYHTGYTYYNPSLKSRFTISRDNSKNTLYLQMNSLRAEDTAVYYCARYKSGAFDIWGQGTLVTVSS
# VL: EIVLTQSPGTLSLSPGERATLSCRASQSVSRNLAWYQQKPGQAPRLLIYGVSSRATGIPDRFSGSGSGTDFTLTISRLEPEDFAVYYCQQYGSSPPTFGQGTKVEIKR
# B3: anti-BCMA IgG antibody 2C6 (antibody, V domains shown)
# VH: EVQLLESGGGLVQPGGSLRLSCAASGFTFSNYGMSWVRQAPGKGLEWVSSIDYNGSTYYNPSLKSRFTISRDNSKNTLYLQMNSLRAEDTAVYYCAKEHGLFDSWGQGTLVTVSS
# VL: EIVLTQSPGTLSLSPGERATLSCRVSQSISSYLNWYQQKPGQAPRLLIYDASTRAIGIPDRFSGSGSGTDFTLTISRLEPEDFAVYYCQQVNSYPITFGQGTKVEIKR
# B4: mutant antibody 5D5 LM4 (antibody, V domains shown)
# VH: EVQLLESGGGLVQPGGSLRLSCAASGFTFSDYGLSWVRQAPGKGLEWVSLIDSSGSSTFYADSVKGRFTISRDNSKNTLYLQMNSLRAEDTAVYYCAKEHGLFDSWGQGTLVTVSS
# VL: EIVLTQSPGTLSLSPGERATLSCKASQDIDDAINWYQQKPGQAPRLLIYDASLRATGIPDRFSGSGSGTDFTLTISRLEPEDFAVYYCQQSLRTPITFGQGTKLEIKR
# notes: Light chain CDR mutant of 5D5 (IgG1); heavy chain as 5D5
# B5: mutant antibody 5D5 LM1 (antibody, V domains shown)
# VH: B4 VH
# VL: B4 VL with D31N, A32D
# notes: as for B4
# B6: mutant antibody 5D5 LM2 (antibody, V domains shown)
# VH: B4 VH
# VL: B4 VL with D31E, A32D
# notes: as for B4
# B7: mutant antibody 5D5 LM3 (antibody, V domains shown)
# VH: B4 VH
# VL: B4 VL with D31A, A32D
# notes: as for B4
# B8: mutant antibody 5D5 LM5 (antibody, V domains shown)
# VH: B4 VH
# VL: B4 VL with A32E
# notes: as for B4
# B9: mutant antibody 5A6 LM6 (antibody, V domains shown)
# VH: EVQLLESGGGLVQPGGSLRLSCAASGFTFSNYGVHWVRQAPGKGLEWVSYISYSGGTYYNPSLKSRFTISRDNSKNTLYLQMNSLRAEDTAVYYCARDSDDFGFDYWGQGTLVTVSS
# VL: QSVLTQPPSASGTPGQRVTISCQGESLRSYYVNWYQQLPGTAPKLLIYDHSKRPTGVPDRFSGSKSGTSASLAISGLRSEDEADYYCQSYDASTVVFGGGTKLTVLG
# notes: Light chain CDR mutant of 5A6 (IgG1); heavy chain as 5A6
# B10: mutant antibody 5A6 LM7 (antibody, V domains shown)
# VH: B9 VH
# VL: B9 VL with E25D, S26A, D91E, A92S
# notes: as for B9
# B11: mutant antibody 5A6 LM3 (antibody, V domains shown)
# VH: B9 VH
# VL: B9 VL with E25D, D91E, A92S
# notes: as for B9
# B12: mutant antibody 5A6 LM5 (antibody, V domains shown)
# VH: B9 VH
# VL: B9 VL with D91E, A92S
# notes: as for B9
# B13: mutant antibody 5A6 LM1 (antibody, V domains shown)
# VH: B9 VH
# VL: B9 VL with A92S
# notes: as for B9
# B14: mutant antibody 5A6 LM4 (antibody, V domains shown)
# VH: B9 VH
# VL: B9 VL with E25D
# notes: as for B9
# B15: mutant antibody 5A6 LM2 (antibody, V domains shown)
# VH: B9 VH
# VL: B9 VL with E25D, S26A, A92S
# notes: as for B9
# B16: mutant antibody 5A6 LM8 (antibody, V domains shown)
# VH: B9 VH
# VL: B9 VL with E25D, S26A
# notes: as for B9
# B17: anti-BCMA IgG antibody 5C3 (antibody, V domains shown)
# VH: EVQLLESGGGLVQPGGSLRLSCAASGFTFSDYYIHWVRQAPGKGLEWVSAISGSGGSTYYADSVKGRFTISRDNSKNTLYLQMNSLRAEDTAVYYCASDLGDTTFDSWGQGTLVTVSS
# VL: EIVLTQSPGTLSLSPGERATLSCQASDDISNYLNWYQQKPGQAPRLLIYGVSNRASGIPDRFSGSGSGTDFTLTISRLEPEDFAVYYCQQSYSTPPITFGQGTKLEIKR
# B18: anti-BCMA IgG antibody 2F8 (antibody, V domains shown)
# VH: EVQLLESGGGLVQPGGSLRLSCAASGFTFSNYGMSWVRQAPGKGLEWVSEIIPIFDTSNYAQKFQGRFTISRDNSKNTLYLQMNSLRAEDTAVYYCAKIPGNRHDYWGQGTLVTVSS
# VL: QSVLTQPPSASGTPGQRVTISCTRMQRQSDWYQQLPGTAPKLLIYDNNKRPLGVPDRFSGSKSGTSASLAISGLRSEDEADYYCQSYDSNAYVVFGGGTKLTVLG
# Key:
# human BCMA-Fc/His (1-51) = biological target: T1, human BCMA-Fc/His (1-51) (human, UniProt Q02223 1-51); assay: BLI (Octet), antigen on Ni-NTA biosensor, IgG in solution
# T1 construct: also called recombinant human BCMA-Fc/His; recombinant human BCMA-His (Sino Biological Inc.); not shown: Fc region; C-terminal His tag
# T1 sequence: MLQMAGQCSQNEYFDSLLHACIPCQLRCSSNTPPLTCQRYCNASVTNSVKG
# Description: A 96-well black microplate was mounted on a Biosensor tray case, 200 μl of 1XKB was added to each of the 8 wells, and then 8 Ni-NTA biosensors (Fortebio) were inserted thereto for hydration for 10 minutes. For antigen fixation, 5 μg/ml of recombinant human BCMA-His (Sino Biological Inc.) was diluted using 1XKB. Experiments were performed with a threshold of 0.5 to 1.0 nm, and Octet Data Acquisition 9.0 software was activated to create an Octet program template. The first step was for Baseline 1, the second step was for loading, and the threshold was fixed to 0.5 to 1.0 nm. In the third step, which was for Baseline 2, association for 5 minutes and dissociation for 20 minutes were performed. A plate temperature was fixed to 30° C., and the prepared buffer solution was placed in order into a new 96-well black microplate according to the Octet program template. 200 μl of 1XKB used as Baseline 1 and recombinant human BCMA-Fc/His which is an antigen to be loaded were diluted to 5 μg/ml, and 200 μl of the dilution was added thereto. After adding 200 μl of 1XKB used as Baseline 2, 200 μl of the antibody to be reacted with the antigen was dispensed, and the instrument was operated. After completion of the experiment, an association constant (kon), a dissociation constant (kdis), and an equilibrium dissociation constant (KD) for each antibody were analyzed and calculated with Octet Analysis 9.0 software.
# [1] = biological target: T2, monkey (Rhesus) BCMA (1-53) fused to the Fc region of human IgG1 (monkey (Rhesus); human, UniProt Q02223 1-54); assay: ELISA on coated monkey (Rhesus) BCMA, antibody titrated, HRP anti-Fab detection, absorbance 450 nm
# T2 construct: Sino Biological Inc. 90103-C02H; also called monkey BCMA; Monkey BCMA (1-53); not shown: Fc region of human IgG1
# Description: (§1) Using recombinant human BCMA or monkey BCMA as an antigen, and HRP-conjugated Fab polychronal antibody reagent (Pierce, 31414) as a secondary antibody, ELISA was performed as described in Example 1.3.
# [2] = biological target: T3, recombinant human BCMA (ELISA antigen, construct not specified) (human, UniProt Q02223 1-54); assay: ELISA on coated recombinant human BCMA, antibody titrated, HRP anti-Fab detection, absorbance 450 nm
# T3 construct: Fc 1-51; Fc/His 1-51; Fc 4-48) was coated in these ELISAs; also called recombinant BCMA; recombinant protein
# T3 sequence: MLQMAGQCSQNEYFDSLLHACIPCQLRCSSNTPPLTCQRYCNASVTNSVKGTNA
# Description: Specific binding abilities of the anti-BCMA IgG antibodies isolated in Example 1.4 to recombinant BCMA protein were analyzed by ELISA.
# as §1
# [3] = biological target: T3, recombinant human BCMA (ELISA antigen, …); assay: ELISA on recombinant BCMA
# [4] = biological target: T4, human monomeric BCMA antigen (human, UniProt Q02223 5-54, limits assumed); assay: SPR (Biacore T200), antibody captured on protein A chip, antigen 6.25-100 nM
# T4 construct: also called recombinant human BCMA antigens
# T4 chain: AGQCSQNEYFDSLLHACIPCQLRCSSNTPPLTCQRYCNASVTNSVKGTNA
# Description: In particular, the prepared antibodies were diluted with a 1×HPS-EP buffer (GE Healthcare, BR-1006-69). The target antigen-binding affinity analysis was performed using a Biacore T200 (GE Healthcare). The antibodies were flowed onto a protein A chip at a contact time of 60 seconds, a stabilization time of 30 seconds, and a flow rate of 30 μl/min until a capture level reached 128 RU (Response Unit), thereby preparing an antibody-captured protein A chip.
# The antigen was sequentially diluted with a 1×HPS-EP buffer, by 2-fold each time, from 100 nM to 6.25 nM, thereby preparing a total of […] samples. The 1×HPS-EP buffer was used as a negative control group (blank).
# The prepared antigen was flowed across the antibody-captured protein A chip at a flow rate of 30 μl/min for an association time of 60 seconds, followed by a disassociation phase for 180 seconds. Regeneration was performed with a 10-mM Glycine-HCL (pH 1.5) buffer (GE Healthcare, BR-1003-54) at a flow rate of 30 μl/min for a contact time of 30 seconds.
# [5] = biological target: T5, human BCMA expressed on cell surface (H929, OPM-2, CHOK1-hBCMA cells) (human, UniProt Q02223 1-184); assay: FACS on H929 cells
# T5 construct: also called cell-surface BCMA; BCMA on cell surface
# T5 sequence: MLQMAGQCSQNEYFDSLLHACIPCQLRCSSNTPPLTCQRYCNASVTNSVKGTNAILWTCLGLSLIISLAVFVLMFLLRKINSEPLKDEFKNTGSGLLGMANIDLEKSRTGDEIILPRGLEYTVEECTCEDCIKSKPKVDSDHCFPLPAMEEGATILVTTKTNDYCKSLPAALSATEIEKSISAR
Binder,EC50 [3] [nM],MFI [5],other results
B1,,,Kd (human BCMA-Fc/His (1-51)): 361 nM; koff (human BCMA-Fc/His (1-51)): 0.0143 s⁻¹; kon (human BCMA-Fc/His (1-51)): 39700 M⁻¹ s⁻¹; binding result [1]: binds
B2,,,Kd (human BCMA-Fc/His (1-51)): 1.29 nM; koff (human BCMA-Fc/His (1-51)): 0.00179 s⁻¹; kon (human BCMA-Fc/His (1-51)): 1.38e+06 M⁻¹ s⁻¹; EC50 (read off the curve) [2]: ~0.01 µg/mL
B3,,,Kd (human BCMA-Fc/His (1-51)): 0.37 nM; koff (human BCMA-Fc/His (1-51)): 0.000403 s⁻¹; kon (human BCMA-Fc/His (1-51)): 1.09e+06 M⁻¹ s⁻¹; EC50 (read off the curve) [2]: ~0.05 µg/mL
B4,0.0708,62.3,Kd [4]: 14.2 nM; koff [4]: 0.0594 s⁻¹; kon [4]: 4.17e+06 M⁻¹ s⁻¹
B5,0.0939,32,
B6,0.0858,29,
B7,0.0593,31.5,
B8,0.0763,73.6,
B9,0.0537,78.9,Kd [4]: 18.1 nM; koff [4]: 0.00922 s⁻¹; kon [4]: 509000 M⁻¹ s⁻¹
B10,0.105,71.1,
B11,0.133,84.6,
B12,0.103,81.4,
B13,0.0818,83.4,
B14,0.0823,77.1,
B15,0.0509,66.7,
B16,0.068,68.6,
B17,,,Kd (human BCMA-Fc/His (1-51)): 16.4 nM; koff (human BCMA-Fc/His (1-51)): 0.00966 s⁻¹; kon (human BCMA-Fc/His (1-51)): 591000 M⁻¹ s⁻¹; EC50 (read off the curve) [2]: ~0.9 µg/mL
B18,,,Kd (human BCMA-Fc/His (1-51)): 104 nM; koff (human BCMA-Fc/His (1-51)): 0.0152 s⁻¹; kon (human BCMA-Fc/His (1-51)): 147000 M⁻¹ s⁻¹; EC50 (read off the curve) [2]: ~0.07 µg/mL
